# T1: endogenous PDK1 (human (endogenous in A375)), O15530
# T1 chain: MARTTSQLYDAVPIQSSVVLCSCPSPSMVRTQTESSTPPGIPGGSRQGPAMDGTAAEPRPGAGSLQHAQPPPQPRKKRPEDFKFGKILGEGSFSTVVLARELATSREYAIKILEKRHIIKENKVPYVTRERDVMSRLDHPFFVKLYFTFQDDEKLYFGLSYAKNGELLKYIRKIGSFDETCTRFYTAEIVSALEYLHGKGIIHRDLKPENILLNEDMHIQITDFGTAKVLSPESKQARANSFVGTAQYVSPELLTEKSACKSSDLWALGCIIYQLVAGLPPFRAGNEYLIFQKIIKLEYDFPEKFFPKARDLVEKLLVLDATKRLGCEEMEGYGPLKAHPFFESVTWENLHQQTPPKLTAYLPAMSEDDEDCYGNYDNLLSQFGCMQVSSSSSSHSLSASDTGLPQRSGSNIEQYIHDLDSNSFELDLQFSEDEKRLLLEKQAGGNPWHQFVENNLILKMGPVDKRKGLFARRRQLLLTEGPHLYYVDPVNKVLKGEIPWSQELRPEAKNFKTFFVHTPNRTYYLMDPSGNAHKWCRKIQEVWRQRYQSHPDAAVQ
# T2: PDK1 (exogenous, HA- or Flag-tagged) (human), O15530
# T2 chain: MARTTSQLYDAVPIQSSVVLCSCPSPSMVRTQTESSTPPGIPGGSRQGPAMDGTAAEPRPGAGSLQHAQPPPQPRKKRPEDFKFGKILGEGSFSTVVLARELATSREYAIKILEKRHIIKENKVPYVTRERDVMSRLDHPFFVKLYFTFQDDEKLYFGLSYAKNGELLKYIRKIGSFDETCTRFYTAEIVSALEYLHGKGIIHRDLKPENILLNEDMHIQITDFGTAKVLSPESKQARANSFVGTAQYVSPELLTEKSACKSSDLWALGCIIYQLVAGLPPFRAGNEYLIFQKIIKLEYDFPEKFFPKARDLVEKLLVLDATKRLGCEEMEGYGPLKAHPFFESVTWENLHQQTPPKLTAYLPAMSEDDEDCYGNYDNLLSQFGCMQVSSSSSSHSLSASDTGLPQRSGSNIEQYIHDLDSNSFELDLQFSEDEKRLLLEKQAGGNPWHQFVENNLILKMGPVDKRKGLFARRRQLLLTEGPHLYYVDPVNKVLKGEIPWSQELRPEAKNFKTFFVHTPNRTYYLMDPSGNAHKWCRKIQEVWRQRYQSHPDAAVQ
# B1: endogenous PDK1, O15530 1-556 (enzyme)
# chain: MARTTSQLYDAVPIQSSVVLCSCPSPSMVRTQTESSTPPGIPGGSRQGPAMDGTAAEPRPGAGSLQHAQPPPQPRKKRPEDFKFGKILGEGSFSTVVLARELATSREYAIKILEKRHIIKENKVPYVTRERDVMSRLDHPFFVKLYFTFQDDEKLYFGLSYAKNGELLKYIRKIGSFDETCTRFYTAEIVSALEYLHGKGIIHRDLKPENILLNEDMHIQITDFGTAKVLSPESKQARANSFVGTAQYVSPELLTEKSACKSSDLWALGCIIYQLVAGLPPFRAGNEYLIFQKIIKLEYDFPEKFFPKARDLVEKLLVLDATKRLGCEEMEGYGPLKAHPFFESVTWENLHQQTPPKLTAYLPAMSEDDEDCYGNYDNLLSQFGCMQVSSSSSSHSLSASDTGLPQRSGSNIEQYIHDLDSNSFELDLQFSEDEKRLLLEKQAGGNPWHQFVENNLILKMGPVDKRKGLFARRRQLLLTEGPHLYYVDPVNKVLKGEIPWSQELRPEAKNFKTFFVHTPNRTYYLMDPSGNAHKWCRKIQEVWRQRYQSHPDAAVQ
# B2: PDK1 (exogenous, HA- or Flag-tagged), O15530 1-556 (enzyme)
# chain: MARTTSQLYDAVPIQSSVVLCSCPSPSMVRTQTESSTPPGIPGGSRQGPAMDGTAAEPRPGAGSLQHAQPPPQPRKKRPEDFKFGKILGEGSFSTVVLARELATSREYAIKILEKRHIIKENKVPYVTRERDVMSRLDHPFFVKLYFTFQDDEKLYFGLSYAKNGELLKYIRKIGSFDETCTRFYTAEIVSALEYLHGKGIIHRDLKPENILLNEDMHIQITDFGTAKVLSPESKQARANSFVGTAQYVSPELLTEKSACKSSDLWALGCIIYQLVAGLPPFRAGNEYLIFQKIIKLEYDFPEKFFPKARDLVEKLLVLDATKRLGCEEMEGYGPLKAHPFFESVTWENLHQQTPPKLTAYLPAMSEDDEDCYGNYDNLLSQFGCMQVSSSSSSHSLSASDTGLPQRSGSNIEQYIHDLDSNSFELDLQFSEDEKRLLLEKQAGGNPWHQFVENNLILKMGPVDKRKGLFARRRQLLLTEGPHLYYVDPVNKVLKGEIPWSQELRPEAKNFKTFFVHTPNRTYYLMDPSGNAHKWCRKIQEVWRQRYQSHPDAAVQ
# Tests used:
# [1] = molecular target: T3, spleen tyrosine kinase (SYK) (Homo sapiens, UniProt P43405); test: microscale thermophoresis (MST) with GFP-fused SYK in cell lysate; supported by in vitro kinase activation of bacterially expressed SYK; format: binding; set-up: full-length SYK-EmerGFP (HEK293T lysate)
# [2] = molecular target: T3, spleen tyrosine kinase (SYK); test: microscale thermophoresis (MST) with GFP-fused SYK in cell lysate; format: binding; set-up: SYK-EmerGFP (HEK293T lysate)
# [3] = molecular target: T3, spleen tyrosine kinase (SYK); test: microscale thermophoresis (MST) with GFP-fused SYK in cell lysate; supported by in vitro kinase activation of bacterially expressed SYK; format: binding; set-up: full-length SYK-EmerGFP (HEK293T lysate); remark: listed apart in the source
# [4] = molecular target: PDK1^9CS with Cys21 rescued (human) (UniProt O15530); test: non-reducing gel and immunoblot; A375 cells in glucose-free medium for 3 h, with or without NAC (5 mM) or GSH (2.5 mM); PDK1 monomer and dimer bands under non-reducing conditions
# [5] = molecular target: PDK1^9CS with Cys23 rescued (human) (UniProt O15530); test: as above
# [6] = molecular target: T1, endogenous PDK1 (human (endogenous in …)); test: as above; details: remark: other sources report otherwise
# [7] = molecular target: T2, PDK1 (exogenous, HA- or Flag-tagged) …; test: as above; details: remark: other sources report otherwise
molecule,measurement,setting,value
Nc1ncnc2c1ncn2[C@@H]1O[C@H](COP(=O)(O)OP(=O)(O)O)[C@@H](O)[C@H]1O [ADP],Kd,[1],42.4 ± 19.1 µM
NC(=O)C1=CN([C@@H]2O[C@H](COP(=O)(O)OP(=O)(O)OC[C@H]3O[C@@H](n4cnc5c(N)ncnc54)[C@H](OP(=O)(O)O)[C@@H]3O)[C@@H](O)[C@H]2O)C=CC1 [NADPH],Kd,[2],232 ± 16.5 µM
NC(=O)c1ccc[n+]([C@@H]2O[C@H](COP(=O)([O-])OP(=O)(O)OC[C@H]3O[C@@H](n4cnc5c(N)ncnc54)[C@H](OP(=O)(O)O)[C@@H]3O)[C@@H](O)[C@H]2O)c1 [NADP^+],Kd,[3],69.1 ± 16.1 µM
PDK1^9CS with Cys21 rescued (from UniProt O15530 1-556) (enzyme),stoichiometry N,[4],2
PDK1^9CS with Cys23 rescued (from UniProt O15530 1-556) (enzyme),stoichiometry N,[5],2
B1,stoichiometry N,[6],2
B2,stoichiometry N,[7],2

# From paper PMC12331947, “Activation of AKT via a dual mechanism enhances the susceptibility of melanoma cells to glucose deprivation” (Cell Death & Disease, 2025)
